Measured values from the supplement of paper PMC12042874.
± gives the uncertainty stated by the source.

Assay: amyloid nucleation score (Sup35N fusion, yeast selection) (log enrichment); library NNK3; higher = more nucleation; inactive = no reads after selection
In short: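 The nucleation score is a DiMSum log enrichment of output over input reads, centred on the mode score of non-aggregating sequences. Sequences under 100 input reads were excluded, and reads came from Illumina sequencing of plasmid inserts. Psi-negative yeast expressing Sup35N fused to peptides of 20 random codons were induced with 100 μM copper sulfate for 24 hours and grown 7 days at 30°C on medium lacking adenine and uracil. Random libraries had three technical output replicates.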

Amyloid nucleation score, 1.13 ± 0.15:
NLFVNL

Amyloid nucleation score, 2.18 ± 0.071:
NCMTLCLIDIRYSFENFFSF

Amyloid nucleation score, 2.15 ± 0.067:
NALRFNLWMLNTVKVEYRSD

Amyloid nucleation score, 0.269 ± 0.36:
NLCVYWYSWGRSWGDFVTGY

Amyloid nucleation score, -0.172 ± 1:
MMVRWEVTV

Amyloid nucleation score, 1.67 ± 0.071:
MSNGIVYNELFSVVRWS

Amyloid nucleation score, 1.78 ± 0.098:
NCVCEWTAFLYIPSIWGFEH

Amyloid nucleation score, 0.555 ± 0.29:
NHVTVYVI

Amyloid nucleation score, 2.54 ± 0.07:
NLMRSILWVEYVQDCNCCSG

Amyloid nucleation score, 0.955 ± 0.14:
NGPEGSLFDLSDFCHFCLNR

Amyloid nucleation score, -0.892 ± 2.4:
MNYRFVISMLWVEVRGFGRQ

Amyloid nucleation score, 0.813 ± 0.2:
MNDNLNNHVSDEIFSFVG

Amyloid nucleation score, 1.75 ± 0.077:
NDFSKGLCMWTFNWNDTYDQ

Amyloid nucleation score, 2.56 ± 0.052:
NFCFLCSWCIL

Amyloid nucleation score, 2.77 ± 0.071:
NFFAACNMMVLPFSMDFCSR

Amyloid nucleation score, 2.61 ± 0.057:
NLTYVMGSGWLLYQCVIM

Amyloid nucleation score, 1.71 ± 0.075:
MYLITGAFLCIHQHG

Amyloid nucleation score, -0.124 ± 0.75:
MNRDTYSMWSVKDKMTFI

Amyloid nucleation score, -0.052 ± 0.62:
NGVFWGRKSRSYEFWSFYFQ

Amyloid nucleation score, 0.619 ± 0.13:
NIGYSMLESPFIIIDICNSC

Amyloid nucleation score, inactive:
MNFVPTLRSIVVGRWRDLEV
MNLFFGFWLLLSAFVSHQVC
MNNVN
MNRNLLFASTLTFNFVLFVW
MPGAALLVVLFSGFVYREAM
MPNYNLSGLNWVRCG
MPYDFPVVHNIDFFG
MQLDYSSSVLNMFLDANILY
MQTNCFRMAVYFAQVRLS
MRHEHAYSIPAHCIYELIMM
MRLADLGMLGARTDQDRLPT
MRLRLYINVSG
MRNLGGLCIALPEVVEGTDF
MRRKDKNIRVDYRVAGGYRD
MRSMVKLSCDERVCFVISGE
MRSSIPIYVLMLIALSENSP
MSCIFVSKKFLRLELGSSLY
MSFRRIFSSLIYSLRRSSAN
MSGEFVV
MSGTLCPSHNILETDCRVQV
MSIVAGENLIGKV
MSLLGQ
MSLLS
MSLVFRMSPHIQLVGWVHGR
MSNLCDLHKN
MSSHFSSKAFGFHYGF
MSVACFSLASVFQWGFFASC
MSVLC
MSVRG
MTAMSFKGYAVIGGVIDRCR
MTAVVDRTSNGYSYVTGHLL
MTDFKSTLSTTSMFTGESLI
MTLRRKLSMTAV
MTPMRAAMTLICHMPARRFS
MTPTMDENSFLDSSISQMLW
MTWNVGRADGFLRSSCSNFR
MVIYSLHRTLIIICGRANLT
MVKSKSTLTCNSIEPCIVIF
MVMNYWSTCNYSWPEVVISG
MVNWPDGRILGSLRNWRHQD
MVSDIGWYLLQFTERRSCFY
MVSMNSAAFLFRCHYCLGVR
MVVLAVGRVKLAVYGCRKHG
MVYIKILHFVILMSMHFN
MWWGLAPIFWLLITTTDCGY
MYAVSGVNAQGWWLLADYEL
MYETVR
MYFYYYGSRYYNNSDCLLSS
MYLFRENGHQSGNVY
MYRNECSMLSSIHLTVPSGN
MYSHRRGRKLRLLESFYNLS
NAFLIGTDILRFMRVLFKQL
NAGYSNRCQIGYICSVRACK
NAIGEISSVYSCTL
NAVRLVGSPAVVVSTMGHN
NAWIFVKRFS
NAYTAHGYDKLRNQSKVAYR
NAYVEGRSWVLVIENKDFAV
NCGRNRNPPTESCPEVGPRL
NCGVMEYGGILISYFE
NCKALGFNWALMGKSMSLRG
NCLGPWPCLTTILYLRSLEF
NCSELGSS
NCWVNKIDVFLAESSMQCKA
NDIITLSQTLVELSPFGWLS
NDLWIEMFKS
NEDLIDVQVVHC
NEFVSYNLLVTGGWSRCWYF
NEHGEAGCAYEAKGAVGVKS
NENFTNAQQNFYDCVF
NENTALSTWAPGYLINSYRA
NERREANGWSYRDLHGSGFE
NEWIKDINVI
NFFCSA
NFLKSG
NFLLVPYLSPKLDMGGYHLW
NFLSSNFKKALHLFPISDCN
NFPGLTASMIKCGGNQCYVG
NFQTNGTLKHNN
NFTSFCFSKMSRLEDSGQ
NFVPVYSLSRRAVLGHTGWC
NFWNWLHNPWAPM
NGEKLFSEDVVSYWVDVYSR
NGFKEGLIAVLREQYLSYQ
NGHWL
NGMASMIRGIYNSVPHIRGL
NGVVLLQIKIRDPRSCWWGV
NHKEWWFTVYLTSGVVCDLG
NHLIQIG
NHQLGIGYFCDTYLCDHWDP
NIGWSVCERL
NILPRRGEQAV
NINIMPG
NIRWGTYVSKFVLYLAITTR
NIRYVWCQKRLTCARSWNPV
NISLN
NIWNWNNRVLFCEAGMGTCI
NIWVQ
NKGSVDGYMFSTGVTFLMLE
NKLIRSEVSLLAMCMCSGNG
NKVISSSLTFRFIKVQFIYH
NKVVMGNLWGPPVFDRCDKG
NLCRNDDSLFFCSS
NLDLSGGESASWRNFSFFLK
NLESTNTMSYIWYRADSKCG
NLIFRFPLAIKWSLFSLDCL
NLLVFDACHGVIRYGKTRVA
NLLWIISHNMNGVSRIISSV
NLNWGTLSTRFYCVEDS
NLNYNLSPLTEYSVSD
NLPNGMFKIHVDG
NLRFRSIFSS
NLSSSDTRSVCASWVTR
NLTVGSTILIPC
NLVGTMATRYCRAHQEAREW
NLVYLLLRLYMMTFYQQRCP
NLYMGRPKRRVIGYLVACFA
NMENLKRGFVIWS
NMGTGGRLEGPVDSGHSEKF
NMLYTKRNTVSSALVIYCVN

Amyloid nucleation score, 0.664 ± 0.23:
MRQIAQRCRSGNAACIGSLG

Amyloid nucleation score, 0.361 ± 0.15:
MYLIYGHGTIIICTESVSVH

Amyloid nucleation score, 1.52 ± 0.14:
NLVACIVNTCYL

Amyloid nucleation score, -0.239 ± 0.8:
MWMLLFGCSSCWWSCNRLSP

Amyloid nucleation score, 0.787 ± 0.28:
NLLSAVY

Amyloid nucleation score, 1.91 ± 0.06:
NMFCVPYVKVESGCIMKRGN

Amyloid nucleation score, 3.2 ± 0.055:
NIARRTIKLTPFFSIFCVYS

Amyloid nucleation score, 1.96 ± 0.075:
NLNSFSGAFVLIWGATVHFC

Amyloid nucleation score, 0.881 ± 0.23:
NCSWGRRKETTDLSGSKCWT

Amyloid nucleation score, 1.52 ± 0.088:
NLCFCALCGKYIRVNVVAM

Amyloid nucleation score, 0.377 ± 0.34:
NISYKW

Amyloid nucleation score, 0.909 ± 0.23:
NMFPGSISLEWWGGTQLRWE

Amyloid nucleation score, 2.14 ± 0.057:
NFRLSVLKVLCYVIVED

Amyloid nucleation score, -0.287 ± 0.34:
NFSCSSRNRWMCMDVGKVCR

Amyloid nucleation score, 1.61 ± 0.075:
NMCSFFFRVSPVLQVQVSLV

Amyloid nucleation score, 2.02 ± 0.063:
NAHLRCMTTILGLFQTFGRG

Amyloid nucleation score, 1.29 ± 0.15:
MTQVQCLTSVNWKVTHVLHR

Amyloid nucleation score, 0.996 ± 0.091:
NLYMLNTQGMSVLISCVGRI
